The results in this text go back to the supplement of paper PMC12042874.

± gives the uncertainty stated by the source.

This data set can be described thus: amyloid nucleation score (Sup35N fusion, yeast selection) (log enrichment); library NNK3; higher = more nucleation; inactive = no reads after selection. The method in brief: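 Growth for 7 days at 30°C on medium lacking adenine and uracil followed a 24-hour induction with 100 μM copper sulfate of psi-negative yeast expressing peptides of 20 random codons fused to Sup35N. Input and output plasmid inserts were sequenced with Illumina, and sequences with under 100 input reads were excluded. Nucleation score is the DiMSum log enrichment of output over input reads, centred on the mode score of non-aggregating sequences.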
Consider IWKRLYPFTVRQVSCTIMCD, for which the amyloid nucleation score entry is “inactive”. Then IWNRLESFHCHILMVTFHVN, with “inactive”; and IWPWYCKHNIFVKYHRLVER, with “inactive”.

Turning to IWRLCNVPICPSLRGAGHYS, the amyloid nucleation score result is “inactive”.

IWSIQLSFKIASSCNFATG: the amyloid nucleation score result is “inactive”.

With IWVSYWAGFVRSFSRVCNLV, the amyloid nucleation score result was “inactive”.

Take IWWILIDP: the amyloid nucleation score entry is “inactive”. The value for IYGGCIFYRMSQCARMDTGE was “inactive”.

On to IYIFGFQTVCNSLIGGLSIA, for which the amyloid nucleation score result was “inactive”.

For IYLYYGRTYSTFLWEV, the amyloid nucleation score is 0.762 ± 0.12. Consider IYRQDCGFSPKNRKMVSGAA, for which the amyloid nucleation score entry was “inactive”.

Turning to IYRTPSADDLSRDAYIGFYR, the amyloid nucleation score result is “inactive”. The value for IYSSCPFNLTSRMVGF was “inactive”; that for IYTFSCDIYCNMSFCLWFDN was 2 ± 0.088; that for IYWDTRLGFCAYAKC was “inactive”.

As for KANFNVSVGKSVHATCLLTL, the amyloid nucleation score result is “inactive”.

As for KAPVVWYDMEARQKCVRGGG, the amyloid nucleation score entry was “inactive”.

As to KATWSCLHLATHSASPCQSA, the amyloid nucleation score entry is “inactive”. For the substance KAVVLGEWTRSFCSLDFNI, the amyloid nucleation score entry was “inactive”. The value for KAWETWAITTRSWKMFIRCL was 0.046 ± 0.96. As to KCFISYR, the amyloid nucleation score result is “inactive”.

Take KCIGDLTSRMDLR: the amyloid nucleation score entry was “inactive”. The value for KCLKCKTGLCTMQGEYNRSY was -0.475 ± 0.88; that for KDADMDLLSRYATRCGVSRL was “inactive”. The value for KDCMVYWLRI was “inactive”; that for KDNPLSCLVKVNVWTKLQEG was 1.16 ± 0.12; that for KDSQALHRFSNTILRYL was -0.406 ± 0.82.

On to KDSRSCLSFL, for which the amyloid nucleation score entry was “inactive”.

Consider KDSYMSCYKPRYVLPRRIIQ, for which the amyloid nucleation score entry was “inactive”. Then KEADSVNDRLVNLLMHGTLC, with “inactive”. The value for KESVYPTWHMRWFVYCELVL was “inactive”; that for KFGVLRLVFSTLVSTLSRMV was “inactive”; that for KFIWYIDDCWWCTTICSSGG was “inactive”. The value for KFLRVFVKRTLESLRRVTSV was “inactive”; that for KFLYGGFCGWMSAVLNVLYP was -0.364 ± 0.82.

Substance KFTFMQIKISPFDTCIQGWW yielded an amyloid nucleation score of -0.067 ± 0.4. For KFTYSLKLCADFGFLSTWKV, the amyloid nucleation score entry is “inactive”. For the substance KFVDDRKVCLVLHH, the amyloid nucleation score result was “inactive”.

Take KFVQSIIGHWNLGHMPCGSM: the amyloid nucleation score was 0.587 ± 0.17.

Turning to KGETEPYKDSMLQKLTGQLQ, the amyloid nucleation score result is “inactive”. As to KGFRAVCWICIYRDEY, the amyloid nucleation score was -0.533 ± 0.84. As to KGGDELYFEELDEWSQGSRR, the amyloid nucleation score result is “inactive”.

For KGGWEADLYYVVCLVIISIW, the amyloid nucleation score result was “inactive”.

As for KGLFWEGYGMMLRLRWWMMV, the amyloid nucleation score entry was “inactive”.

On to KGLSIIWMGQFGGAEFRITG, for which the amyloid nucleation score result was “inactive”. With KGLVLAYILSRSVFERFKGG, the amyloid nucleation score entry was “inactive”.

For KGSTSAVIGRYGWLRMRC, the amyloid nucleation score result was “inactive”. Substance KGSVMTCDSYTCFMLNSEVL gave an amyloid nucleation score of 1.47 ± 0.13.

Regarding KGTMVQTVKSVWLGEHIVLA, the amyloid nucleation score entry was “inactive”. The value for KGWLSSWVA was “inactive”; that for KICAK was “inactive”.

KIFYYTWYSLSYTIQLYGLQ: the amyloid nucleation score entry was “inactive”. Turning to KIGGVYVLVS, the amyloid nucleation score entry is “inactive”. Regarding KINDCYGYYDLYWNWSIVRF, the amyloid nucleation score entry is “inactive”. The value for KIQSMISTITMVFTKLLSHL was -0.546 ± 0.7; that for KIYIILNGWQVSLIDYYGGK was 2.58 ± 0.056. Then KIYWGATLNQTSYRVAVCLT, with “inactive”; and KKFGSYEWSRI, with “inactive”. The value for KKSKRISLGR was “inactive”; that for KLFRIKNGSVEVIWYRNMCQ was 0.973 ± 0.14. Take KLFVVHSREGEFIFSI: the amyloid nucleation score result was “inactive”. Then KLICVRTDWWSCVIISRFSL, with “inactive”. The value for KLRFKLRSLVNNNCGVVTRA was “inactive”.

For KLRVFV, the amyloid nucleation score entry is “inactive”. The value for KLTIRYLWYPLEQSGYRTCE was 1.06 ± 0.2. For KLVATVFTSRCATVWLVQGF, the amyloid nucleation score entry was “inactive”. Take KLWFGHMPTIF: the amyloid nucleation score result was “inactive”. Then KLWPM, with “inactive”. Then KMACTCAESTVIIS, with “inactive”; and KMGPILKCPR, with “inactive”.

For the substance KMGTRGWLSDIAGNMVYVLC, the amyloid nucleation score entry was “inactive”.

Consider KNERVWVSRWETFKLHCSRV, for which the amyloid nucleation score entry is “inactive”. The value for KNGIITLSSIT was “inactive”; that for KNINVLYHICAALKSCAFCT was “inactive”. The value for KNSTWMSESVNNRFFIQVGA was “inactive”; that for KNTSCWAATSADQRRVDFRR was “inactive”; that for KPGIRYYFISM was 1.52 ± 0.12. Then KPMGYYLFDVTTELYDNDWF, with “inactive”; and KPRVMFMISARVFVNYRICS, with “inactive”; and KPVKTWNYLFWMCL, with 2.49 ± 0.072. In the case of KQADVFIIMSRVIGNRGCLF, the amyloid nucleation score result was “inactive”.

Substance KQCIFNISLCSS registered an amyloid nucleation score of 0.008 ± 0.42. Turning to KQKMYTAVPKGIQNILEA, the amyloid nucleation score result is “inactive”. Then KRFGKMLLW, with “inactive”.

Take KRFTGSK: the amyloid nucleation score entry was “inactive”.

As for KRGMSHVSVCFIMRCFLYID, the amyloid nucleation score entry is “inactive”. The value for KRHYMGTAQGCMGIVLKVFY was “inactive”. For KRLQWMYYL, the amyloid nucleation score entry is “inactive”. The value for KRMSKKALRLVVSYFSPS was “inactive”. Then KRNRRTISLMTKFIMGKPGY, with “inactive”; and KRSHY, with “inactive”. The value for KRSPKIQDL was “inactive”. For KRSSA, the amyloid nucleation score entry was “inactive”. The value for KRVRGLALTQIY was 0.159 ± 0.45. Consider KSFRIMMLRSWMLRLLKYQL, for which the amyloid nucleation score entry is “inactive”.

The substance KSFWVHMTGAFVCARYWCLP returned an amyloid nucleation score of 0.97 ± 0.17.

As to KSGPYAVRLSEISWCDVRAG, the amyloid nucleation score is 0.153 ± 0.88. Then KSGTCK, with “inactive”; and KSMATMSQIVPDSFSEFDWY, with “inactive”; and KSMIAGVTMWLLCTVSLSYN, with “inactive”. The value for KSMYWLYCTEWEHSNMHVFM was 0.17 ± 0.68; that for KSVRNTAHLWHCVLTIYVYL was “inactive”; that for KSVYMHTGPGKGNRVVEKCM was “inactive”. Regarding KTCIVCMLHL, the amyloid nucleation score was 3.32 ± 0.068.

For KTLIRASWSLSC, the amyloid nucleation score result was “inactive”. Then KTRSAMRDLVVSFWYF, with 1.65 ± 0.075; and KTSVEISN, with “inactive”. With KVFMGRCCWLCSPY, the amyloid nucleation score amounted to 1.42 ± 0.1. Then KVGTVLWCFTCSAGHRECNG, with 2.75 ± 0.055. Then KVILPWKLWADGWRDY, with “inactive”.

Take KVRRGQLKIRS: the amyloid nucleation score entry was “inactive”.

Consider KVSDKPHHKRGVGLDLMMMD, for which the amyloid nucleation score result is “inactive”.

In turn, KVTFKYLLKSVSLGQGTT displayed an amyloid nucleation score of 0.341 ± 0.28.

As to KWCKKKQFKSLDWLTYDI, the amyloid nucleation score result was “inactive”. The value for KWKVAKVGDWQAAPTLGSHR was “inactive”; that for KWLMNSNFAWLI was “inactive”. Then KYEMTIPSSVLRALSNKHWL, with -0.539 ± 1.4; and KYITHLFFFILSERYCWFPM, with -0.341 ± 0.56; and KYKLTLYDNAVSGGDALHLR, with “inactive”.

Substance KYLAFLQLCGAPMYLWTPPI had an amyloid nucleation score of 0.757 ± 0.3. Then KYLGG, with “inactive”. KYNAIVLVYPKSADCVKTLM registered an amyloid nucleation score of 0.387 ± 0.36. Then KYQLPRDNFS, with “inactive”; and KYSMTK, with “inactive”; and KYVVQPYGSCRWGLITVRAN, with “inactive”. For the substance KYWDPQFP, the amyloid nucleation score result was “inactive”. In the case of LADFRGQSLTDEGCMWTSSG, the amyloid nucleation score result is “inactive”. The value for LAITLRLLFVNIIFTDPDLY was “inactive”. The value for LALCSTCFNLVYIICVGKKW was “inactive”; that for LAMHIALDSNRDKAFGVLNE was “inactive”; that for LARQFF was “inactive”.
